Assay results from patent US20230073067A1 (INSTITUTE OF MICROBIOLOGY CHINESE ACADEMY OF SCIENCE, published 2023).

Target: 2019-nCoV RBD protein with C-terminal hexa-His tag (2019-nCoV (SARS-CoV-2), UniProt P0DTC2 319-541)
Assay: SPR, Biacore 8K, antibody captured on protein A chip, RBD as analyte
Protocol: Surface plasmon resonance analysis was performed using Biacore 8K (Biacore Inc.).
Binding kinetic constants were calculated using BIAevaluation software 8K (Biacore, inc.) software.

B1: GH12 antibody (antibody, human IgG1, lambda, V domains shown)
VH: EVQLVESGGGLVQPGGSLRLSCAASGFTFSSYWMSWVRQAPGKGLEWVANIKQDGSEKYYVDSVKGRFTISRDNAKNSLYLQMNSLRAEDTAVYYCTRAGWVRGAFDIWGQGTMVTVSS
VL: NFMLTQPHSVSESPGKTVTISCTGSSGSIASNYVQWYQQRPGSAPTTVIYEDNQRPSGVPDRFSGSIDSSSNSASLTISGLKTEDEADYYCQSYDSSNLWVFGGGTKLTVLG
notes: also called human antibody GH12
Kd: 5.87 nM | koff: 0.0173 s⁻¹ | kon: 2.95e+06 M⁻¹ s⁻¹
